The values below come from patent EP3926342A1.

The target in experiment [1] is human rhinovirus strain RV89 (major group RV-A), purified virus (human rhinovirus) (UniProt P07210). Put plainly: fluid phase competition ELISA: RV89 (25 µg/ml) pre-incubated with 50 µg/ml soluble ICAM-1, then added to plate-bound ICAM-1.
The target of experiment [2] is recombinant human ICAM-1/CD54 (R&D Systems) (human) (UniProt P05362).
Experiment [3] deals with human rhinovirus strain RV2 (minor group RV-A), purified virus (human rhinovirus) (UniProt P04936). Put plainly: fluid phase competition ELISA: RV2 (5 µg/ml as printed here) pre-incubated with 50 µg/ml soluble LDLR, then added to plate-bound LDLR.
Sequence of human rhinovirus strain RV2 (minor group RV-A), purified virus (human rhinovirus) (P04936 2-850): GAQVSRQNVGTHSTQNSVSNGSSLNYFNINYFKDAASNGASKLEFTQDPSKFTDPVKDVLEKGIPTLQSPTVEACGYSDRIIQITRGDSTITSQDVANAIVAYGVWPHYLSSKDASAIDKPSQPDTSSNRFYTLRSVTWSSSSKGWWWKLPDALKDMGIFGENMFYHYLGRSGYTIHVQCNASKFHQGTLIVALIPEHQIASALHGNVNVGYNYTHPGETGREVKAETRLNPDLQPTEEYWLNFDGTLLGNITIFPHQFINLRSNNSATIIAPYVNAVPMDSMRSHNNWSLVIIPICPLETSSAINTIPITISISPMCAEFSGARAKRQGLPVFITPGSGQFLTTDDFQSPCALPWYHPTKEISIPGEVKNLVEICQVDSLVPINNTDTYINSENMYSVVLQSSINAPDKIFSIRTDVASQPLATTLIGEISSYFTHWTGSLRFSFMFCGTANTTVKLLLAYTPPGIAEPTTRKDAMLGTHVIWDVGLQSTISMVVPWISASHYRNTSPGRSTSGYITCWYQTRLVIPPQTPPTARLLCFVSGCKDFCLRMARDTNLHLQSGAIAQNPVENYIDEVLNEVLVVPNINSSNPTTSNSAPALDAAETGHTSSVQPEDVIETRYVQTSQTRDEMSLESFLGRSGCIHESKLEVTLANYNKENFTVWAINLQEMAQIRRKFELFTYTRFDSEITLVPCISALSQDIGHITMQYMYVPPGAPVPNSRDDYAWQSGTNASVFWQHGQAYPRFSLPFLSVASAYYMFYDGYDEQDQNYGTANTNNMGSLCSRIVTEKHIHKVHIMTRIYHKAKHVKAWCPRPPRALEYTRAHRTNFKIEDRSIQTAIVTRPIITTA
The target of experiment [4] is biotinylated RV89 (human rhinovirus) (UniProt P07210).
Sequence of biotinylated RV89 (human rhinovirus) (P07210 2-866): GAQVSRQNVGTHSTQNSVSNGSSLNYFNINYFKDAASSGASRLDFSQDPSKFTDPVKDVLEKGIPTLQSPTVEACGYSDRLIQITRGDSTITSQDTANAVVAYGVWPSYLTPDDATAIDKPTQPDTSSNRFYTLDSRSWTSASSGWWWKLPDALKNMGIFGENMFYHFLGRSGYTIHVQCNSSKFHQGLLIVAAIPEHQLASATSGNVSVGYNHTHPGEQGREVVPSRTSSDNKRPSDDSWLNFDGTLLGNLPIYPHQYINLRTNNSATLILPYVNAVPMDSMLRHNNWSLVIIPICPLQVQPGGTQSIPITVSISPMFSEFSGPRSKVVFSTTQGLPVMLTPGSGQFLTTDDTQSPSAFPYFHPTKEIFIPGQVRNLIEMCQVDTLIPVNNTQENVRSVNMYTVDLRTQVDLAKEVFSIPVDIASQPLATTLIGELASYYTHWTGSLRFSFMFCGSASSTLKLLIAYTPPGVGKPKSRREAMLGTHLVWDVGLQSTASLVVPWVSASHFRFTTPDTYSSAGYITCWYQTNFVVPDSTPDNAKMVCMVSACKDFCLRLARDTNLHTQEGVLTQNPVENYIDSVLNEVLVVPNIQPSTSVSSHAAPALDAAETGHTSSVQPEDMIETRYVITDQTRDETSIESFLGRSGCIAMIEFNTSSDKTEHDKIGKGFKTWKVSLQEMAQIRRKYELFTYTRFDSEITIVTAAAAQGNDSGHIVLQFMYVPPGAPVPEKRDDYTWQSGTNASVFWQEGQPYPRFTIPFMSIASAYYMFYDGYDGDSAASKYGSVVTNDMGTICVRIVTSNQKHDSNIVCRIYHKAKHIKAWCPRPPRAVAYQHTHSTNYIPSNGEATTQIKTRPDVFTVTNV

Some results are limits rather than exact numbers.

Sequence of recombinant human ICAM-1/CD54 (R&D Systems) (human) (P05362 28-480 limits assumed): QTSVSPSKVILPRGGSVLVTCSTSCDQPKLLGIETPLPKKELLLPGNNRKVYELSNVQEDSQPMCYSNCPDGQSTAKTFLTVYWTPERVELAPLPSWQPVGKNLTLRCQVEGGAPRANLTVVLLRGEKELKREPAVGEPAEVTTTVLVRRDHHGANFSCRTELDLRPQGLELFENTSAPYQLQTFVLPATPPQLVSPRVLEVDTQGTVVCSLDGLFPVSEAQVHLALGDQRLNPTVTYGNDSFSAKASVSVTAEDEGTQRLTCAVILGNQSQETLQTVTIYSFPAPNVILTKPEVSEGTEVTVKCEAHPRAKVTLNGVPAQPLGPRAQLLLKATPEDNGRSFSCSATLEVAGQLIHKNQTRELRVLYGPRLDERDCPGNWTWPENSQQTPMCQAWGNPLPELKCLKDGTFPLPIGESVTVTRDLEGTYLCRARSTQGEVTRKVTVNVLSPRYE
Sequence of human rhinovirus strain RV89 (major group RV-A), purified virus (human rhinovirus) (P07210 2-866): as the sequence (P07210 2-866) above
Sequence of recombinant human ICAM-1/CD54 (R&D Systems) (P05362 28-480 limits assumed): as the sequence (P05362 28-480 limits assumed) above

Substance “recombinant human ICAM-1/CD54 (R&D Systems) (from UniProt P05362 28-480) (receptor)” displayed a percent inhibition of RV89 binding to plate-bound ICAM-1 in experiment [1] greater than 95%.
As to “biotinylated RV89 (from UniProt P07210 2-866)”, in experiment [2], the lowest virus concentration at which binding to ICAM-1 was detected came to 6.25 µg/mL.
In experiment [3], “recombinant human LDLR (R&D Systems) (from UniProt P01130 22-788) (receptor)” returned a percent inhibition of RV2 binding to plate-bound LDLR greater than 60%.
For the substance “human rhinovirus strain RV89 (major group RV-A), purified virus (from UniProt P07210 2-866)”, the lowest virus concentration at which binding to ICAM-1 was detected in experiment [2] worked out at 6.25 µg/mL.
Substance “ultrasensitive Streptavidin-Peroxidase Polymer (Merck) (from UniProt P22629 37-163)” displayed a lowest coated concentration of biotinylated RV89 that was detected in experiment [4] of 0.625 µg/mL.
